Results on 7 molecules are retold here after patent EP4585618A1 (Jiangsu Hengrui Pharmaceuticals Co., Ltd., dated 2025).

The target of test [1] is T1, His-tagged ILT4 protein extracellular domain: ILT4-His (human, UniProt Q8N423 22-460).
T1 construct: Expressed in 293 cells; also called human ILT4-His protein
Description: ELISA, coated ILT4-His 1 µg/mL; Assay 1.

For test [2], the target named is T1, His-tagged ILT4 protein extracellular …. In words: ELISA, coated ILT4-His 1 µg/mL; Assay 4.
Test [3] shares this target. In words: SPR (Biacore), antibody captured on Protein A chip, ILT4-His as analyte, 1:1 model.
For test [4], the target named is T2, His-tagged ILT2 protein extracellular domain: ILT2-His (human, UniProt Q8NHL6 24-461).
T2 construct: The entry is the whole construct, with the His tag; also called human ILT2 protein
T2 sequence (Q8NHL6 other isoform, or with tags, fused parts or gaps): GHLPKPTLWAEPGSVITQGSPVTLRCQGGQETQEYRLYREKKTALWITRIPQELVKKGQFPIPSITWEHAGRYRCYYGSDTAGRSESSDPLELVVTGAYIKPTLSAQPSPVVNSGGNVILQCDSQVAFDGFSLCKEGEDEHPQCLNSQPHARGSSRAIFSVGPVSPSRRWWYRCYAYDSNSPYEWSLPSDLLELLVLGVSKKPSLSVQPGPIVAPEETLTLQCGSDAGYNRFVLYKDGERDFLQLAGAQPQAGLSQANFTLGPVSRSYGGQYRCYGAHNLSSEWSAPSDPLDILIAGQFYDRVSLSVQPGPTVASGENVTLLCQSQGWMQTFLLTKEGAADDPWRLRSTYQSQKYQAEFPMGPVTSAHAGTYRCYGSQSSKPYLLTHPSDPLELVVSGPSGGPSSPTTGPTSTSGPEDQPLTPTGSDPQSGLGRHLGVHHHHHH
Description: ELISA, coated protein 1 µg/mL.

In test [5] the target is T3, LILRA5-His (Acro, LI5-H82E1) (human, UniProt A6NI73 42-268).
T3 construct: Bought protein. 'Human' stands at the head of the list of coated proteins; not shown: His tag
T3 sequence (A6NI73 42-268 limits assumed): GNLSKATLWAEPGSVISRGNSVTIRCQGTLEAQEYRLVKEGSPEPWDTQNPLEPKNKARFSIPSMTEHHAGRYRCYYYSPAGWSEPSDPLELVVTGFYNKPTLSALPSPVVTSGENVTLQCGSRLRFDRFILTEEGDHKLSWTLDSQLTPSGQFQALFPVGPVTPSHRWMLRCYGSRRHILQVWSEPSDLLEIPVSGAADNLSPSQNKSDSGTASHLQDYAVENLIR
Description: ELISA, coated protein 1 µg/mL.

Test [6] has as its target T4, LILRB5-His (Acro, CDC-H5220) (human, UniProt O75023 24-458, limits assumed).
T4 construct: Bought protein. 'Human' stands at the head of the list of coated proteins; not shown: His tag
Description: ELISA, coated protein 1 µg/mL.

The target in test [7] is T5, His-tagged ILT3 protein extracellular domain: ILT3-His (human, UniProt Q8NHJ6 22-259).
T5 construct: The entry is the whole construct, with the His tag
In words: ELISA, coated protein 1 µg/mL.

The target in test [8] is T6, LILRA6-His (Acro, LI6-H82E2) (human, UniProt Q6PI73 24-447).
T6 construct: Bought protein. 'Human' stands at the head of the list of coated proteins; not shown: His tag
T6 sequence (Q6PI73 24-447 limits assumed): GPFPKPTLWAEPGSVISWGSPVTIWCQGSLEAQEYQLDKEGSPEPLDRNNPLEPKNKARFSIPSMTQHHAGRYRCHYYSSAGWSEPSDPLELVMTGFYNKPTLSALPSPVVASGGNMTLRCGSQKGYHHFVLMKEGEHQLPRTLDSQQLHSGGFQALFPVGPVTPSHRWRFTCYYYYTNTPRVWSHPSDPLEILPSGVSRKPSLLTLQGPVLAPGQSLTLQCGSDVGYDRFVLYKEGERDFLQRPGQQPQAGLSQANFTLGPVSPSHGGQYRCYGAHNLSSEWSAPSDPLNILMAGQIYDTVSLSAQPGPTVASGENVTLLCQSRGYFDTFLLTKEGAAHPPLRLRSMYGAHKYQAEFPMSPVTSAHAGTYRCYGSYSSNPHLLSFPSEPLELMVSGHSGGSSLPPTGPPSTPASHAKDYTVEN
In words: ELISA, coated protein 1 µg/mL.

In test [9] the target is T7, LILRA4-His (SinoBiological, 16058-H08H) (human, UniProt P59901 24-446).
T7 construct: Bought protein. 'Human' stands at the head of the list of coated proteins; not shown: His tag
T7 sequence (P59901 24-446 limits assumed): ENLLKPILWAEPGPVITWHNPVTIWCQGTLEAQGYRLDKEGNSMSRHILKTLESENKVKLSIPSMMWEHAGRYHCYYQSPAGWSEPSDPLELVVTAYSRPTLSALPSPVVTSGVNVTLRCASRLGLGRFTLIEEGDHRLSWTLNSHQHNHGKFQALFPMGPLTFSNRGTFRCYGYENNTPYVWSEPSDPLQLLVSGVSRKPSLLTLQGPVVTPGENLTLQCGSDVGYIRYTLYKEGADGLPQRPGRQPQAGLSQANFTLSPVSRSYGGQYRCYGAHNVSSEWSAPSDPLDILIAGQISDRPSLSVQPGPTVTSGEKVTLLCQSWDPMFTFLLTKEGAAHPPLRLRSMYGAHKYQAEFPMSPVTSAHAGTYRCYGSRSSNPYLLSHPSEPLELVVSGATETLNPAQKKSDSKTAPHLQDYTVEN
In words: ELISA, coated protein 1 µg/mL.

Test [10] concerns the target T8, LILRA2-His (Acro, LI2-H82E9) (human, UniProt Q8N149 24-449).
T8 construct: Bought protein. 'Human' stands at the head of the list of coated proteins; not shown: His tag
In words: ELISA, coated protein 1 µg/mL.

For test [11], the target named is T9, LILRA3-His (Acro, LI3-H82E0) (human, UniProt Q8N6C8 24-439).
T9 construct: Bought protein. 'Human' stands at the head of the list of coated proteins; not shown: His tag
T9 sequence (Q8N6C8 24-439 limits assumed): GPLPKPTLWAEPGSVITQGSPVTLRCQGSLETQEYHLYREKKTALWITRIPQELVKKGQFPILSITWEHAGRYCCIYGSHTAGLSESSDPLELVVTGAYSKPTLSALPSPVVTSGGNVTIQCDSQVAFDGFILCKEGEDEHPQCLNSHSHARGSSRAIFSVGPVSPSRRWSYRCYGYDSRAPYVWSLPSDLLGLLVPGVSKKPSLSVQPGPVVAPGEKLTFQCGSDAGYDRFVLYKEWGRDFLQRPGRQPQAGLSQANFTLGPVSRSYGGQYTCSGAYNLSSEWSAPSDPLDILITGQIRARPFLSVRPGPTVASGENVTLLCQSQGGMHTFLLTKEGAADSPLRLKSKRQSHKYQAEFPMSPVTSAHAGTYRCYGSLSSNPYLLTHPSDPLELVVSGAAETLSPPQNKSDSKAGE
Description: ELISA, coated protein 1 µg/mL.

Test [12] has as its target T10, LILRA1-His (Acro, LI1-H82E8) (human, UniProt O75019 17-461).
T10 construct: Bought protein. 'Human' stands at the head of the list of coated proteins; not shown: His tag
In words: ELISA, coated protein 1 µg/mL.

Test [13] concerns the target T11, full-length human ILT4 protein overexpressed on cells (human, UniProt Q8N423 22-597).
T11 construct: also called CHO-S/ILT4; ILT4 stably transfected cell strain
In words: flow cytometry (FACS) on CHO-S/ILT4 cells; Assay 1.

Test [14] deals with T11, full-length human ILT4 protein …. In words: flow cytometry competition on CHO-S/ILT4 cells; competitor CF647-labelled HLA-G tetramer; Assay 1.
Test [15] deals with T2, His-tagged ILT2 protein extracellular …. In words: ELISA, coated protein 1 µg/mL, antibody 10 µg/mL.
Test [16] addresses T1, His-tagged ILT4 protein extracellular …. Description: ELISA, coated protein 1 µg/mL, antibody 10 µg/mL.
Test [17] addresses T3, LILRA5-His (Acro, LI5-H82E1). In words: ELISA, coated protein 1 µg/mL, antibody 10 µg/mL.
Test [18] deals with T4, LILRB5-His (Acro, CDC-H5220). In words: ELISA, coated protein 1 µg/mL, antibody 10 µg/mL.
The target in test [19] is T5, His-tagged ILT3 protein extracellular …. In words: ELISA, coated protein 1 µg/mL, antibody 10 µg/mL.
The target of test [20] is T6, LILRA6-His (Acro, LI6-H82E2). Description: ELISA, coated protein 1 µg/mL, antibody 10 µg/mL.
In test [21] the target is T7, LILRA4-His (SinoBiological, 16058-H08H). Description: ELISA, coated protein 1 µg/mL, antibody 10 µg/mL.
The target of test [22] is T8, LILRA2-His (Acro, LI2-H82E9). In words: ELISA, coated protein 1 µg/mL, antibody 10 µg/mL.
Test [23] has as its target T9, LILRA3-His (Acro, LI3-H82E0). In words: ELISA, coated protein 1 µg/mL, antibody 10 µg/mL.
Test [24] has as its target T10, LILRA1-His (Acro, LI1-H82E8). Description: ELISA, coated protein 1 µg/mL, antibody 10 µg/mL.
Test [25] has as its target T11, full-length human ILT4 protein …. In words: flow cytometry competition on CHO-S/ILT4 cells; competitor CF647-labelled HLA-G tetramer; Assay 2.
For test [26], the target named is T1, His-tagged ILT4 protein extracellular …. Description: ELISA, coated ILT4-His 1 µg/mL; Assay 5.
Test [27] has the same target. Description: ELISA, coated ILT4-His 1 µg/mL; Assay 2.
Test [28] addresses T11, full-length human ILT4 protein …. In words: flow cytometry competition on CHO-S/ILT4 cells; competitor CF647-labelled HLA-G tetramer; Assay 3.
In test [29] the target is T1, His-tagged ILT4 protein extracellular …. Description: ELISA, coated ILT4-His 1 µg/mL; Assay 3.
In test [30] the target is T11, full-length human ILT4 protein …. Description: flow cytometry competition on CHO-S/ILT4 cells; competitor CF647-labelled HLA-G tetramer; Assay 4.
Test [31] has as its target T2, His-tagged ILT2 protein extracellular …. In words: phage ELISA.
Test [32] concerns the target T1, His-tagged ILT4 protein extracellular …. Description: phage ELISA.

T1 sequence (Q8N423 other isoform, or with tags, fused parts or gaps limits assumed): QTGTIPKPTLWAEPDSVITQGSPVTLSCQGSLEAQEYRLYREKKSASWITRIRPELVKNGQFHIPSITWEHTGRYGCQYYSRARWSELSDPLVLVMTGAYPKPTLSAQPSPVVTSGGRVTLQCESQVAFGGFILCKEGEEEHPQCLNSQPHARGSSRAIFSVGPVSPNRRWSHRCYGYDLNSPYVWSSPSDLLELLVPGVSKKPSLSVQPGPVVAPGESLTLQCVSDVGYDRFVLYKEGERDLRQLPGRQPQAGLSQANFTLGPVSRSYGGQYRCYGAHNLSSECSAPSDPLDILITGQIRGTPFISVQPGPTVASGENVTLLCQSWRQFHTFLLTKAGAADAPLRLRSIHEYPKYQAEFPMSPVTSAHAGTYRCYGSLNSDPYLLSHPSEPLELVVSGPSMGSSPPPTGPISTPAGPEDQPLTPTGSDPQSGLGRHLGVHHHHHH
T11 sequence (Q8N423 other isoform, or with tags, fused parts or gaps limits assumed): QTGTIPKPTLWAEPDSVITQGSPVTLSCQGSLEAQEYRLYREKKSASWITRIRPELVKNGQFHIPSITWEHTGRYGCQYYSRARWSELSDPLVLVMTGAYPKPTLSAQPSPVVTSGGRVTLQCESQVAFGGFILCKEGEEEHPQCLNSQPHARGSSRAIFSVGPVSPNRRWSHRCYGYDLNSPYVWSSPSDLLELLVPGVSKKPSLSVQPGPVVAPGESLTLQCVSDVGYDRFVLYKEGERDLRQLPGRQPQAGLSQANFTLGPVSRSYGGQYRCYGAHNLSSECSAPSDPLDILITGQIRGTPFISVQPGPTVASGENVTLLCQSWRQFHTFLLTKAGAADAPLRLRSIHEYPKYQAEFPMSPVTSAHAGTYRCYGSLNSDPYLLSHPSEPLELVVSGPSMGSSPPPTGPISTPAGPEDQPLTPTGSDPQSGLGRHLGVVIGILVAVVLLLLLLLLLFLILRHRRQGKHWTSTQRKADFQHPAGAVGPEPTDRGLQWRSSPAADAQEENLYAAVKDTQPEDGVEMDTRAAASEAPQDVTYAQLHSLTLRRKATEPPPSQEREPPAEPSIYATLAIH
T10 sequence (O75019 17-461 limits assumed): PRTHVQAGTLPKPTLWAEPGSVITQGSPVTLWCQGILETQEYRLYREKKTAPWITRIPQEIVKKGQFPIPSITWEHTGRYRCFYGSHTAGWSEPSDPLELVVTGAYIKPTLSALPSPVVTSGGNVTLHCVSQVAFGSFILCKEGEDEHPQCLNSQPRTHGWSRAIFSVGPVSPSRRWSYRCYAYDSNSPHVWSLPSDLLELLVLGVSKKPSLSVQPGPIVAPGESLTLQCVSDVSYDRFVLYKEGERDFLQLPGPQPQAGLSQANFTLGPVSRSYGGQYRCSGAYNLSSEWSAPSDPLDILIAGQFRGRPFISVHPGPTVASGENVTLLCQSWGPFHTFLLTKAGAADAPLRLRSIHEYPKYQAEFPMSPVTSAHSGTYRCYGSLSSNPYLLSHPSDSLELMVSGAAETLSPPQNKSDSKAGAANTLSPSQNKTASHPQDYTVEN
T4 sequence (O75023 24-458 limits assumed): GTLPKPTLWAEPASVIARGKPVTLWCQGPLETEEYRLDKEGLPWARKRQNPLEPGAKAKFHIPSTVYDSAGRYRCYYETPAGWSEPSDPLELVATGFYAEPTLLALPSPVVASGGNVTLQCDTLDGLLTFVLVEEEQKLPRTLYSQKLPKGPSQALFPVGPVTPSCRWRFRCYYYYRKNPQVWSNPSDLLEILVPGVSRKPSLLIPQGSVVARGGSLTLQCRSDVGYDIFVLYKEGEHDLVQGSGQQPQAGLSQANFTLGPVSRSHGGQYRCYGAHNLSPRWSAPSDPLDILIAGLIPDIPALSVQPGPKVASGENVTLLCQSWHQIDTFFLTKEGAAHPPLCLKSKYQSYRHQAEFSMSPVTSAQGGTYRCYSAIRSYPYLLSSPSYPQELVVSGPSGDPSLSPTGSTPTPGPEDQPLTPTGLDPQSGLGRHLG
T8 sequence (Q8N149 24-449 limits assumed): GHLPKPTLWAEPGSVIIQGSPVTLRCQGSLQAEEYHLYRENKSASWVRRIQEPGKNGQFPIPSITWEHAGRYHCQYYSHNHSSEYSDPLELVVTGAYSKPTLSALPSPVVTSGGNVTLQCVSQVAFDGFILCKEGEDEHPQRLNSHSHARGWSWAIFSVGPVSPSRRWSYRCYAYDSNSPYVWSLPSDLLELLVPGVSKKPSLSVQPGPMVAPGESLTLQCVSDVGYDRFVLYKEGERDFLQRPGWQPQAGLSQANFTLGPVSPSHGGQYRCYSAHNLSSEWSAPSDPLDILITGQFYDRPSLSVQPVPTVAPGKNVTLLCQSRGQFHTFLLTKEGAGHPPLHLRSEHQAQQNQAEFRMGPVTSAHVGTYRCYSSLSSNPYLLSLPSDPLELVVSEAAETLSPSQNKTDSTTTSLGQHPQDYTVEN

B1: chimeric antibody ChP1-C4 (antibody, human IgG4 S228P, kappa, F234A L235A, V domains shown)
VH: QVQLKQSGAELVRPGASVKLSCKASGYSFTDYYINWVKQRPGQGLEWIARIYPGNDNTYYNEKFKDKATLTADSSSSTAYMQLSSLTSEDSAVYFCTRSQDGYYEENAMDYWGQGTSVTVSS
VL: DIQMTQSPASLSVSVGETVTITCRASENIYSNLAWYQQRQGKSPQLLVYAATNLADGVPFRFSGSGSGTQYSLKINSLQSEDFGSYYCQQFWGSPHTFGGGTKLEIKR
notes: Murine variable regions with hIgG4(LALA) and CL constant regions; also called M P1-C4
B1 showed a concentration for a half-maximal effect (EC50) in test [1] of 0.0643 µg/mL.

B2: chimeric antibody ChP1-E11 (antibody, human IgG4 S228P, kappa, F234A L235A, V domains shown)
VH: EVQLQQSGPELVKPGASVKMSCQASGYTFTDYSIHWVKQSRGASLEWIGYINPNNGVTNYNQKFKGKATLTVNKSSSTAYMELRSLTSEDSAVYYCAREGDSVTTIVVHWYFDVGGTGTTVTVSS
VL: DIQMTQSPASLSVSLGETVTITCRASENIYSNLVWYQQKQGKFPQLLVYAAINLVDGVPSRFSGSGSGTQYSLKINSLQSEDFGSYYCQQFWDTPLTFGAGTKLEIKR
notes: Murine variable regions with hIgG4(LALA) and CL constant regions; also called M P1-E11
In the case of B2, a half-maximal effect in test [2] (EC50) was put at 0.041 µg/mL.

B3: humanized antibody huP2-E3 (antibody, human IgG4 S228P, kappa, F234A L235A, V domains shown)
VH: EVQLVQSGAEVKKPGASVKVSCKASGYTFTDYYMNWVKQAPGQRLEWMGDINPNSGGTSYNQKFKGRVTITVDKSGSTAYMELSSLRSEDTAVYYCARGGVTTVVATYWYFDVWGQGTTVTVSS
VL: DIQMTQSPSSLSASVGDRVTITCRASENIYSNLAWYQQKPGKSPKLLVYAATNVADGVPSRFSGSGSGTDYTLTISSLQPEDFATYYCQQFWDTPFTFGQGTKLEIKR
notes: Full chains; The constant region is hIgG1(LALA) or hIgG4(LALA) with a kappa CL; also called P2-E3H6L2
B3 came in with a Kd in test [3] of 1.26 nM. The molecule also gave a koff in [3] of 0.00127 s⁻¹. The molecule further yielded a kon in test [3] of 1.01e+06 M⁻¹ s⁻¹. Further, the binding result in test [4], in test [5], in test [6], in test [7], in [8] and in test [9] was “no binding (tested: 10 µg/mL)” in each case. The binding result in [10], in test [11] and in test [12] was “no binding (tested: 10 µg/mL)” throughout. The molecule also displayed an EC50 in [13] of 0.0307 µg/mL. The IC50 in test [14] was determined as 0.012 µg/mL. Also, the “absorbance at 450 nm” value was 0.0541 absorbance at 450 nm in test [15]; 1.04 absorbance at 450 nm in test [16]; 0.0466 absorbance at 450 nm in test [17]; 0.0523 absorbance at 450 nm in test [18]; 0.0699 absorbance at 450 nm in test [19]; 0.047 absorbance at 450 nm in [20]. For the same molecule, the “absorbance at 450 nm” value in test [21] was 0.0605 absorbance at 450 nm; in test [22], 0.055 absorbance at 450 nm; in [23] it was 0.0476 absorbance at 450 nm; in [24] it was 0.0532 absorbance at 450 nm.

B4: positive control antibody JTX (sequences from WO2019126514A2) (antibody, human IgG4 S228P, kappa, V domains shown)
VH: QITLKESGPTLVKPTQTLTLTCTFSGFSLNTYAMGVSWIRQPPGKALEWLASIWWNGNKYNNPSLKSRLTVTKDTSKNQVVLTMTNMDPVDTATYYCAHSRIIRFTDYVMDAWGQGTLVTVSS
VL: DIQMTQSPSSLSTSVGDRVTITCRASEDIYNDLAWYQQKPGKAPKLLIYNANSLHTGVASRFSGSGSGTDFTFTISSLQPEDVATYFCQQYYDYPLTFGQGTKLEIKR
notes: also called JTX-8064
Regarding B4, the IC50 worked out at 0.12 µg/mL in [25], 0.12 µg/mL in test [28], 0.061 µg/mL in test [30] and 0.022 µg/mL in test [14]. The EC50 is 0.0801 µg/mL in test [26]; 0.0826 µg/mL in test [27]; 0.0826 µg/mL in test [1]; 0.0293 µg/mL in test [29]; 0.083 µg/mL in test [2]. The figures for the Top in test [26] and in test [27] were 1.14 absorbance at 450 nm and 1.7 absorbance at 450 nm, respectively.

B5: chimeric antibody ChP1-D7 (antibody, human IgG4 S228P, kappa, F234A L235A, V domains shown)
VH: QIQLVQSGPDLKKPGETVKISCKASGYTFTTYGMNWVKQAPGKALKWMGWINTYSGVPTYADDFKGRFAFSLETSATTAYLQINNLKNEDTATYFCARRTDYDGYVMDCWGQGTSVTVSS
VL: DIVMSQSPSSLAVSIGEKVTMSCKSSQSLFYSGNQKNYLAWYLQKPGQSPKLLLYWASTRESGVPDRFTGSGSGTDFTLTISSVMAEDLAVYYCQQYFSYPPTFGGGTKLEIKR
notes: Murine variable regions with hIgG4(LALA) and CL constant regions; also called M P1-D7
Consider B5, for which, in test [29], the EC50 turned out to be 0.0292 µg/mL.

B6: positive control antibody MK (sequences from WO2018187518A1) (antibody, human IgG4 S228P, lambda, V domains shown)
VH: EVQLQQWGAGLLKPSETLSLTCAVYGGSFSGYYWSWIRQPPGKGLEWIGEINHAGSTNYNPSLKSRVTISVDTSKNQFSLKLSSVTAADTAVYYCARLPTRWVTTRYFDLWGRGTLVTVSS
VL: ESVLTQPPSVSGAPGQRVTISCTGSSSNIGAGYDVHWYQQLPGTAPKLLIYGDSNRPSGVPDRFSVSKSGASASLAITGLQAEDEADYYCQSFDNSLSAYVFGGGTQLTVLG
As to B6, the half-maximal inhibitory concentration (IC50) in test [25] was found to be 0.138 µg/mL; in test [28], 0.138 µg/mL; in test [30] it was 0.092 µg/mL; in test [14], 0.031 µg/mL. Moreover, the Kd in test [3] was 19.1 nM. In test [3], this molecule yielded a koff of 0.00863 s⁻¹. In addition, the on-rate constant (kon) in [3] is 452000 M⁻¹ s⁻¹. The same molecule gave an EC50 in test [13] of 0.031 µg/mL.

B7: P2 (fully human-derived antibody clone from phage library screening) (antibody, V domains shown)
VH: QVQLVQSGAEVKKPGSSVKVSCKASGYTFTSYDISWVRQAPGQGLEWMGGIIPIFGTANYAQKFQGRVTITADESTSTAYMELSSLRSEDTAVYYCTAGIFLATAYWGQGTLVTVSS
VL: DIQMTQSPSSMSASVGDRVTISCQASQDINNYLNWYQQRPGQAPKLLIYDASTLETGVPSRFSGSGSGTYFTLTITSLQPADVATYYCQQYENVPITFGQGTRLEIK
Take B7: the binding result in [31] was “no binding”; in [32] it was “binds”.
